# Reference: patent US10556007B2, “Antibody which binds Lrg1 and methods of use” (UCL Business PLC, priority 2015, dated 2020)
# “And” between values parts separate entries of the source, which are not always exact repeats. Equal values may be shown once.
# T1: Lrg1 (overlapping 15-mer peptides and full length) (Homo sapiens, UniProt P02750)
# T1 sequence (P02750 36-347): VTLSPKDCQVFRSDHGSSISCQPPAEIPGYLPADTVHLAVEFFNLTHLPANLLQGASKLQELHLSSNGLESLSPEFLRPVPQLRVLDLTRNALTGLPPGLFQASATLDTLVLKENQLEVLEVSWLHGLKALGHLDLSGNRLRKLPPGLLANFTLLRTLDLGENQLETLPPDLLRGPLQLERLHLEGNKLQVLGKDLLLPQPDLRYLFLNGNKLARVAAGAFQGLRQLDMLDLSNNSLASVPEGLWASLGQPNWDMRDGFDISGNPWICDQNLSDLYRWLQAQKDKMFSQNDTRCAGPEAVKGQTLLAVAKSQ
# B1: 15C4: mouse monoclonal antibody against human Lrg1, VH SEQ ID NO: 1, VL SEQ ID NO: 2 (antibody, V domains shown)
# VH: QVQLQQSGDEVVRPGSSVKISCKASGYTFSGYWMNWVKQRPGQGLQWIGQIYPGDGDTNYNGKFKGKATLTADKSSSTAYMQLSTLTSEDSAIYFCARSITTVVLDYWGQGTTLTVSS
# VL: DIVLTQSPVSLAVSLGQRATISCRASQSVSTSGYSFMHWYQQKPGQPPKFLIKYASNLESGVPARFSGSGSGTDFTLNIHPVEEEDTATYYCQHSWEMPLTFGAGTKLELK
# modifications: 15C4 Variable Heavy Chain; 15C4 Variable light chain
# Legend:
# [1] = tested on: Lrg1 (rhLrg1 and liver extracts from mouse, rat, rabbit, monkey, dog and cat); assay: Species cross-reactivity ELISA on liver extracts; type: binding; conditions: mAb at 100 nM
# Description: Species cross-reactivity was carried out by ELISA in a protocol in which multiwall plates were coated with rhLrg1, and liver extracts from mouse, rat, rabbit, monkey, dog and cat.
# [2] = tested on: explanted E16.5 mouse metatarsals; assay: Mouse metatarsal angiogenesis assay (ex vivo); type: cell-based; conditions: mAbs at 100 nM, 12 days of culture
# Description: In this assay the function-blocking activity of the mAbs was tested, using explanted E16.5 mouse metatarsals. Vessels grow spontaneously from the embryonic bones to form a 2D-network that can be readily quantified with regard to, for example, vessel length, calibre and branch points. In the mouse metatarsal assay mAbs were added at 100 nM to the culture medium during 12 days of culture, with replenishment of media and mAbs every two days. At the end of the experiment samples were fixed and immunostained for Platelet endothelial cell adhesion molecule (PECAM), and vascular networks were quantified using Imaris software, with normalization to a phosphate buffered saline (PBS) control.
# [3] = target: T1, Lrg1 (overlapping 15-mer peptides and full length); assay: Epitope mapping on ProArray Ultra peptide microarray; type: binding
# Description: The determination of peptide-antibody binding was performed by incubation of serum or antibody samples with a ProArray Ultra® peptide microarray, followed by incubation with a fluorescent-labelled secondary antibody.
# All peptides were synthesized separately, and then bound to the ProArray Ultra® slide surface using Prolmmune's proprietary technology. This optimised process ensured that peptides were presented on the array in such a manner as to closely mimic the properties of the corresponding protein region, circumventing the inherent physiochemical variation of the free peptides themselves and making a compatible, combined peptide and protein array platform. The test analytes (peptides or proteins) were dispensed onto the ProArray Ultra® slide in discrete spots and appropriate gal-files enabled exact alignment of the resulting array features back to the analyte deposited.
# ProArray Ultra® slides were blocked using a validated blocking buffer to reduce non-specific binding of the sera. […] After several washing steps, the ProArray Ultra® arrays were dried and scanned using a high-resolution fluorescence microarray scanning system. […]
# ProArray Ultra® slides containing the immobilised peptides were incubated with the antibody samples. […] The murine IgG positive controls were detected in all samples. […]
# B16-F0 tumours = assay: B16-F0 tumour, 15C4 with cisplatin; type: in vivo, mouse; conditions: vs IgG and cisplatin
# Description: The adherent cell line B16-F0 was harvested and a single-cell suspension of 1×10^6 cells in 100 μl PBS was injected subcutaneously into the lower back of C57B1/6 male mice. Treatment with 15C4 or IgG was started after three days at 50 mg/kg by intraperitoneal injections, and repeated every 3 days. Suboptimal doses of Cisplatin (2.5 mg/kg) were administered to mice bearing tumours with an average size of 0.5 cm^3 every other day by intraperitoneal injections. Tumours were measured with callipers every other day and volume was calculated using the formula: V=(4/3)×π×(L/2)×(W/2)×(H/2).
# Cisplatin and IgG or 15C4 treated tumours were immersion fixed in 4% PFA overnight at 4° C. and then immersed in 30% sucrose overnight at 4° C. Tumour tissue was then OCT embedded and frozen for sectioning (40 μm). TUNEL assay was performed using an ApopTag in situ apoptosis detection kit according to manufacturers protocol (Merk Millipore, USA).
# The DNA double strand break marker γ-H2AX was stained for in tumour sections, indicating cisplatin-induced DNA damage.
molecule,measurement,setting,value
B1,cross-reactivity with rodent Lrg1,[1],"None of antibodies 4H2, 3A11 or 15C4 exhibited strong cross-reactivity with rodent Lrg1"
same,inhibition of angiogenesis (in words),[2],inhibited angiogenesis
same,inhibition of angiogenesis,"[2]; normalised to PBS control, 0.1 µM",~40% and > 25%
same,binding to full length Lrg1 on array,[3],binder at all dilutions
same,tumor growth,B16-F0 tumours; 15C4 50 mg/kg IP every 3 days in combination with cisplatin 2.5 mg/kg,significant reduction in tumor growth
same,apoptosis (TUNEL),B16-F0 tumours; in combination with cisplatin,Significantly more apoptosis
same,nuclei with γ-H2AX foci,B16-F0 tumours; in combination with cisplatin,Significantly more nuclei with γ-H2AX foci
